In this experiment the target is T1, Smc2 (S. cerevisiae condensin subunit) (S. cerevisiae, UniProt P38989 1-1170).
T1 sequence: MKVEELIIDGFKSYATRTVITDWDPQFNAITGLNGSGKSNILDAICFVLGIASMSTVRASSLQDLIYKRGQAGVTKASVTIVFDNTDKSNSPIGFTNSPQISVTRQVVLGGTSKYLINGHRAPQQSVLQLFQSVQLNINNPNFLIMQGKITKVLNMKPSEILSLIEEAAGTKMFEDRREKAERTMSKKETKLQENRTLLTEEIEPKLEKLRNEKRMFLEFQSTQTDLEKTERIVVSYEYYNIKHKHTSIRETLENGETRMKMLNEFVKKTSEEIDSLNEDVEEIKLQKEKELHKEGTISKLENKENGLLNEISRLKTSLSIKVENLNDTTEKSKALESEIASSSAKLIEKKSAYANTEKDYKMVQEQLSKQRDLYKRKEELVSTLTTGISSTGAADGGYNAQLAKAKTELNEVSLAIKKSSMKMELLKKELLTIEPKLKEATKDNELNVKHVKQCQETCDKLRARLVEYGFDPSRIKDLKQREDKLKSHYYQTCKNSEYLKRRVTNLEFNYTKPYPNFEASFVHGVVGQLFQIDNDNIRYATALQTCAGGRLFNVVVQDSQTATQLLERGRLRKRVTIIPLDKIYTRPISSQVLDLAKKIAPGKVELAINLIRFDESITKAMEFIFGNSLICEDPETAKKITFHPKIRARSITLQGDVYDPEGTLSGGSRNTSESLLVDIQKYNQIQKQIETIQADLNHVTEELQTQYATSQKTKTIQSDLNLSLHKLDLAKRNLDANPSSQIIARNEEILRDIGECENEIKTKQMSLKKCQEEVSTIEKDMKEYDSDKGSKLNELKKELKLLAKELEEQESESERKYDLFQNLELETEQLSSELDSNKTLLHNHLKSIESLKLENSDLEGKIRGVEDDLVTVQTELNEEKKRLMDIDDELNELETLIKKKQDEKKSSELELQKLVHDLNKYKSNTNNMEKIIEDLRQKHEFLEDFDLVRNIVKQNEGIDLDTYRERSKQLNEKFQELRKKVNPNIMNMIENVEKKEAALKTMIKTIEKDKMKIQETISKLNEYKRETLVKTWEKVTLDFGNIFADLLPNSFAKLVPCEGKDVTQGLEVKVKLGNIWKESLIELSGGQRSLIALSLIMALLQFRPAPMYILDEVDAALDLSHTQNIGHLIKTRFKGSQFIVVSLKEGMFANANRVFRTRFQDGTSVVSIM
Kind of experiment: cryo-EM structure.

The text below walks through data of publication PMC7610691 (Nature structural & molecular biology, 2020).

B1: Ycg1 (S. cerevisiae condensin HEAT-repeat subunit) (natural protein)
chain: MQDPDGIDINTKIFNSVAEVFQKAQGSYAGHRKHIAVLKKIQSKAVEQGYEDAFNFWFDKLVTKILPLKKNEIIGDRIVKLVAAFIASLERELILAKKQNYKLTNDEEGIFSRFVDQFIRHVLRGVESPDKNVRFRVLQLLAVIMDNIGEIDESLFNLLILSLNKRIYDREPTVRIQAVFCLTKFQDEEQTEHLTELSDNEENFEATRTLVASIQNDPSAEVRRAAMLNLINDNNTRPYILERARDVNIVNRRLVYSRILKSMGRKCFDDIEPHIFDQLIEWGLEDRELSVRNACKRLIAHDWLNALDGDLIELLEKLDVSRSSVCVKAIEALFQSRPDILSKIKFPESIWKDFTVEIAFLFRAIYLYCLDNNITEMLEENFPEASKLSEHLNHYILLRYHHNDISNDSQSHFDYNTLEFIIEQLSIAAERYDYSDEVGRRSMLTVVRNMLALTTLSEPLIKIGIRVMKSLSINEKDFVTMAIEIINDIRDDDIEKQEQEEKIKSKKINRRNETSVDEEDENGTHNDEVNEDEEDDNISSFHSAVENLVQGNGNVSESDIINNLPPEKEASSATIVLCLTRSSYMLELVNTPLTENILIASLMDTLITPAVRNTAPNIRELGVKNLGLCCLLDVKLAIDNMYILGMCVSKGNASLKYIALQVIVDIFSVHGNTVVDGEGKVDSISLHKIFYKVLKNNGLPECQVIAAEGLCKLFLADVFTDDDLFETLVLSYFSPINSSNEALVQAFAFCIPVYCFSHPAHQQRMSRTAADILLRLCVLWDDLQSSVIPEVDREAMLKPNIIFQQLLFWTDPRNLVNQTGSTKKDTVQLTFLIDVLKIYAQIEKKEIKKMIITNINAIFLSSEQDYSTLKELLEYSDDIAENDNLDNVSKNALDKLRNNLNSLIEEINERSETQTKDENNTANDQYSSILGNSFNKSSNDTIEHAADITDGNNTELTKTTVNISAVDNTTEQSNSRKRTRSEAEQIDTSKNLENMSIQDTSTVAKNVSFVLPDEKSDAMSIDEEDKDSESFSEVC
As to B1, the binding result is given as “binds”.
